Laboratory results taken from publication PMC2888443 (The Journal of Biological Chemistry, 2010).

Columns and labels:
[1] = biological target: IN(tetra)·LEDGF(IBD) complex of two IN and one LEDGF(IBD), IN2LEDGF1 (HIV | human); assay: AUC
[2] = biological target: LEDGF/p75 integrase binding domain, LEDGF(IBD) (human); assay: SEC-MALS
[3] = biological target: HIV integrase, full-length, IN(tetra) (C56S, F139D, F185H, C280S) (HIV); assay: AUC
[4] = biological target: LEDGF/p75 integrase binding domain, LEDGF(IBD) (human); assay: AUC
[5] = biological target: HIV integrase N-terminal and catalytic core domains, IN(NTD-CCD)(F185K) (HIV); assay: SEC-MALS
[6] = biological target: LEDGF/p75 C-terminal fragment, LEDGF(Cterm), residues 325-530 (human) (UniProt O75475); assay: SEC-MALS
[7] = biological target: T1, LEDGF/p75 C-terminal fragment, LEDGF(Cterm), residues 325-530 (human, UniProt O75475 325-530); assay: SEC-MALS
T1 sequence: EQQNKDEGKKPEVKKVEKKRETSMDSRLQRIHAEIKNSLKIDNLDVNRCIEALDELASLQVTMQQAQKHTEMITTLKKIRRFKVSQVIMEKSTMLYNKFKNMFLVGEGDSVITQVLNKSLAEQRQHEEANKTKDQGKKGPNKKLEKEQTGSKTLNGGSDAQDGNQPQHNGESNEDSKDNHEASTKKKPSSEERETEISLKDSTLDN

Work on “IN(tetra)·LEDGF(IBD) complex of two IN and one LEDGF(IBD), IN2LEDGF1” yielded a Kd [1] of 8.9 µM.

“HIV integrase, full-length, IN(tetra) (C56S, F139D, F185H, C280S) (enzyme)” was tested, and the stoichiometry N [2] was 2 IN:LEDGF, the Kd [3] was 9.3 µM and the stoichiometry N [4] was 2 IN:LEDGF.

“HIV integrase N-terminal and catalytic core domains, IN(NTD-CCD)(F185K) (domain or fragment)” was tested, and the stoichiometry N [5] was 2 and the stoichiometry N [2] was 1 IN:LEDGF.

“HIV integrase, full-length, IN(tetra)(D116N) (enzyme)” was tested, and the stoichiometry N [6] was 1 IN:LEDGF.

B1: HIV integrase, full-length, wild-type (enzyme)
chain: FLDGIDKAQEEHEKYHSNWRAMASDFNLPPVVAKEIVASCDKCQLKGEAMHGQVDCSPGIWQLDCTHLEGKVILVAVHVASGYIEAEVIPAETGQETAYFLLKLAGRWPVKTVHTDNGSNFTSTTVKAACWWAGIKQEFGIPYNPQSQGVIESMNKELKKIIGQVRDQAEHLKTAVQMAVFIHNFKRKGGIGGYSAGERIVDIIATDIQTKELQKQITKIQNFRVYYRDSRDPVWKGPAKLLWKGEGAVVIQDNSDIKVVPRRKAKIIRDYGKQMAGDDCVASRQDED
In the case of B1, the “stoichiometry N” value [7] is reported as 1 IN:LEDGF.
